Laboratory results reported in patent US20030045681A1 (published 2003).

Key:
[1] = biological target: an irrelevant antigen (antigen of HyHEL-10, not given); test: affinity chromatography of the conjugate on an antigen column
hen egg lysozyme (hen) = hen egg lysozyme (hen) (UniProt P00698); test: radiolabeled scFv loaded onto an antigen column, flow-through and eluate counted
[2] = biological target: T1, recombinant ED-B domain of fibronectin (UniProt P02751 1266-1356, biotinylated (biotin disulfide N-hydroxysuccinimide ester) in ELISA and the ECL competition; Cy5 at the N-terminal extremity in the band-shift assay); test: Kd = koff/kon, koff from ECL competition, kon from BIAcore
T1 construct: domain: ED-B; also called biotinylated ED-B; ED-B-biotin
T1 sequence (P02751 1266-1356 limits assumed): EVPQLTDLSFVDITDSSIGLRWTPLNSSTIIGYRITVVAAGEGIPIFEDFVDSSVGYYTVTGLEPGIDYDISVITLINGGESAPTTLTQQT
Protocol: (§1) Int. J. Cancer, 68, 397-405). After loading, the column was washed with 50 ml of equilibration buffer (PBS, 1 mM EDTA, 0.5 M NaCl). Antibody fragments were then eluted with triethylamine 100 mM, immediately neutralised with 1M Hepes, pH 7, and dialysed against PBS. Affinity measurements by BIAcore were performed with purified antibodies as described (Neri et al. (1997). Nature Biotechnol., 15 1271-1275) [FIG. 4]. Band-shift analysis was performed as described (Neri et al. (1996). Nature Biotechnology, 14, 385-390), using recombinant ED-B fluorescently labeled at the N-terminal extremity (Carnemolla et al. (1996). Int. J. Cancer, 68, 397-405, Neri et al. (1997). Nature Biotechnol., 15 1271-1275) with the infrared fluorophore Cy5 (Amersham) [FIG. 4]. […] We therefore performed measurements of the kinetic dissociation constant koff by competition experiments (Neri et al. (1996), Trends in Biotechnol., 14, 465-470) [FIG. 4]. […] Streptavidin-coated dynabeads, diluted in Origen Assay Buffer (Deaver, D. R. (1995). Nature, 377, 758-760) were then added (20 μl, 1 mg/ml), and the resulting mixtures analysed with a ORIGEN Analyzer (IGEN Inc. Gaithersburg, Md. USA). […]

[3] = biological target: T1, recombinant ED-B domain of fibronectin; test: SPR (BIAcore); the footnote calls this value not sufficiently reliable
Protocol: (§2) Meth., 206, 171-182) and affinity purified onto a CNBr-activated sepharose column (Pharmacia, Uppsala, Sweden), which had been coupled with 10 mg of ED-B containing 7B89 recombinant protein (Carnemolla et al. (1996). Int. J. Cancer, 68, 397-405). After loading, the column was washed with 50 ml of equilibration buffer (PBS, 1 mM EDTA, 0.5 M NaCl). Antibody fragments were then eluted with triethylamine 100 mM, immediately neutralised with 1M Hepes, pH 7, and dialysed against PBS. Affinity measurements by BIAcore were performed with purified antibodies as described (Neri et al. (1997). Nature Biotechnol., 15 1271-1275) [FIG. 4]. Band-shift analysis was performed as described (Neri et al. (1996). Nature Biotechnology, 14, 385-390), using recombinant ED-B fluorescently labeled at the N-terminal extremity (Carnemolla et al. (1996). Int. J. Cancer, 68, 397-405, Neri et al. (1997). Nature Biotechnol., 15 1271-1275) with the infrared fluorophore Cy5 (Amersham) [FIG. 4]. […] We therefore performed measurements of the kinetic dissociation constant koff by competition experiments (Neri et al. (1996), Trends in Biotechnol., 14, 465-470) [FIG. 4]. […] Streptavidin-coated dynabeads, diluted in Origen Assay Buffer (Deaver, D. R. (1995). Nature, 377, 758-760) were then added (20 μl, 1 mg/ml), and the resulting mixtures analysed with a ORIGEN Analyzer (IGEN Inc. Gaithersburg, Md. USA). […]

[4] = biological target: T1, recombinant ED-B domain of fibronectin; test: SPR (BIAcore), purified scFv on ED-B
Protocol: as §2

[5] = biological target: T1, recombinant ED-B domain of fibronectin; test: competition of the scFv-(biotinylated ED-B) complex with excess unbiotinylated ED-B, electrochemiluminescent detection (Origen)
Protocol: as §1

hen egg lysozyme (hen), sequence (P00698 19-147): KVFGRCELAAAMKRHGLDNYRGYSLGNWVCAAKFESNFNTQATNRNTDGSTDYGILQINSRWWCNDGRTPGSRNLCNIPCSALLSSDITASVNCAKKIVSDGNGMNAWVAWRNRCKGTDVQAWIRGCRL

scFv(HyHEL-10)-Cy5 gave an immunoreactivity [1] greater than 78%.

With radioiodinated scFv(D1.3) the immunoreactivity (hen egg lysozyme (hen)) was greater than 80%.

B1: scFv(L19) (scFv)
scFv: EVQLLESGGGLVQPGGSLRLSCAASGFTFSSFSMSWVRQAPGKGLEWVSSISGSSGTTYYADSVKGRFTISRDNSKNTLYLQMNSLRAEDTAVYYCAKPFPYFDYWGQGTLVTVSSGDGSSGGSGGASTGEIVLTQSPGTLSLSPGERATLSCRASQSVSSSYLAWYQQKPGQAPRLLIYYASSRATGIPDRFSGSGSGTDFTLTISRLEPEDFAVYYCQQTGRIPPTFGQGTKVEIKDDDSDDDYKDDDDKHHHHHH
notes: also called antibody L19; anti-ED-B L19
B1 showed a Kd [2] of 0.054 nM, a koff [3] of 9.6e-05 s⁻¹ and a kon [4] of 110000 M⁻¹ s⁻¹. The koff [5] was 6e-06 s⁻¹.
